For the assay, the system named is CD3+ Vβ+ T cells of peripheral blood lymphocytes (PBL). The assay is described as follows: T-cell enrichment assay with HtTA 4 cells transfected with bicistronic constructs. The assay is classed as cell-based, human. Conditions: PBL from a healthy donor; 9 days of specific stimulation; FIG. 18.

B1: pCDL-HERV WΔ120 aa: N-terminal 120 amino acid fragment of HERV-W ENV (amino acids 1 to 120, including signal peptide), expressed from a bicistronic cassette (protein)
chain: APPPCRCMTSSSPYQEFLWRMQRPGNIDAPSYRSLSKGTPTFTAHTHMPRNCYHSATLCMHANTHYWTGKMINPSCPGGLGVTVCWTYFTQTGMSDGGGV
Turning to B1, the “expansion of Vβ17+ T-cells” value is reported as “no expansion”.
